# Data from the domain aggregation screens of Martell et al. (2025).
# Assay: soluble fraction after stress (log2 fold change); higher = more stays soluble; pooled small domains, quantitative proteomics
# Details: stress: 50 degC
# Outline: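 Quantitative proteomics served as the high-throughput read-out for pooled custom libraries of small protein domains. Each was stressed at 50°C. Aggregation propensity is expressed as the base-two log fold change in soluble protein after stress. A higher value means a larger share of the protein remains in solution.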
row,Sequence,soluble fraction (log2)
1,HMHPKTPDELLALMSEEQRGQIEQLAKLVLMAVSYSGASYYDAVTTMYPRMSEERRRIITHVLNTASP,-0.652
2,HMGSGQVTLPDLEGKSMKEVARILSQLGLHLSPDGHGLAFKQSPAAGTRVPVGSTIKVSFQPL,0.0366
3,HMNETVTNQTVLDLLKEGFTSEEIIGAIENSSTRTITYDINFMRQLKAAGADVTLTTYLQKIAKKDM,-0.13
4,HMNSFGWESFVGEKGVTDTDLRPSGWIVIKDKRLFALTEGTFIEKGVSVEILSVEGNRIVVREIS,-0.249
5,HMKSQVVAYSDFVKAVNQKQINEVQIQGDKIRAINKAGEEITVTWLQNDQKLMDDLLDNNVKTIFLE,0.29
6,HMSPPVIQQGQDVRLIYKGTGFAVSNEGKALNTAADGQVARARTGGGQTVSGIARPGGIIEIT,0.308
7,HMSQQEAQLNSLVKIYESMKPKDAARIFDTLDMDVLLDVVMRMKEARSAAVLAEMTPDRAKEVTLQLAD,-0.61
8,HMNPTLPYGFAKRHGVILLEAGEVAVVGLREGADPAALIETRRALGRPLRVEPLDQATFDRRLSQVYA,-0.148
9,HMEYMKQRLYDIIELFKRSFSPSFSEEEKKKLENVLQDDFLRKAYEQLSDEVFIEEKFREFDGY,-1.73
10,HMEIVQVIAQNIQDLLDKHKISVSELSGYLGISRQTLTNYLKTTSTIDSVQLVKIADFFNIPAEYLLKDH,-0.968
11,HMINYSQKQLIAIQDELSKRFQALENESTKNNVTGFGVGLHYIDIDLIVNTPEKQKEFREKIMDSPAFRFN,-0.839
12,HMVNTVEVQGNTIYSAEEIRSASGIQKGDNLFTLNKEAAAGSIKASLPYVETVSIIRFLPDKIVIEVKE,-0.473
13,HMKEQYTELDWDKVQVNDKVMIKDLNQQVTILSLPDKNNALYIQMGMIKTKVKKEKLAVYNPQLA,-0.185
14,HMETVVTEVKTTDVVNIRTSDSETADKLSKAAIGDTFPLLEERGNGWSKVAYNGEEAFIKSDYLEPSKTE,0.42
15,HMQRDERYVYHTVLAGETIYSLSRKFNVTMDELLESNPALRSGVLTTGSEIRVLKAQMAQNFD,-0.376
16,HMINEEELLKIENIKRKYPDSKAALMPVLYFFQEKYGFISDDSIKEISQLLNISEVDIKGVVSFYEMFHEK,-0.59
17,HMVELVKVPALQGETVDEAIADIKDAGLEPGQVRYVESDLPKDTVTYQSVDAGEQVKAGTVINLQASKGP,0.251
18,HMLPEGIENGDVLTRTDALDYRKWLVTGNQKRIFASTASFYGENFNYSEVKAVSDRVLDAIPDGEPV,-0.0574
19,HMVSLEEIINDLTSRIQTAVKMRFSDFVQNRKERVGVIVSFLGMLELVKQGIIDIKQEGHFADIEMETA,-0.296
20,HMNQTPQISYSQFIADVRSGQIKDVNIDSDNRTIVGHKFSGEEFTTFSPGDNKLVDELLNYNVEIKTSP,0.411
21,HMEQNHYEVLGVSRDAIPEEIRKAYFEYARKLHPDANPDPGAAEQFMRIQTAYDVLSNPDRRHEYDGLLPP,-0.000773
22,HMVHSEDLQDHKYVSQLGEVFLKENPNYENIKKSWGDHMVVIKKFGRYPHRNKILNRKSTPEELEFLKG,-0.0131
23,HMIVVMARETSTDDLEAIRERIESRGMVAQINLGVERTVIGVMGSIPPDFKDEMELMNGVVEVVMISK,-0.408
24,HMQEERDISFIKIHLEPGHPWRGRALRELMPLKDLLIVMVVRGEDTIVPNGDTRLEEGDLLVLAAYPFEE,-0.436
25,HMRISMRDQVYEIIKNRILSREYSLGEPINIVHLSKELGISNTPIREALSQLETERLITINSNQKYHVT,-0.154

row,Sequence,soluble fraction (log2)
1,HMNSILFAITKEGGVVYGGKPVGVNGVRPLVRRLLQSEEMPVILQVDEKADAGLVIRVIDESKLGGASKV,-0.269
2,HMALDLPVKRVKGKEYYYYKVKKGESLYGISKHLGLPLDSIVKSNPSVADGVRKGDMLLFPLEEYT,-0.307
3,HMNEKMKEIGLRIKELRELSDISAQGMADHLKIPLETYQEYEDGKKDIPASILFEISQKMEVDMGLLLTGE,-0.0988
4,HMVTDTGAIEKVIDEVIAANPKQVQEIADQRAAGHEKPKTLGWLVGQIMKASGGKVNPAAVNEILLKKLG,0.149
5,HMQPDYRVLYSNFSDKDGGAIVAALEKMNVPYKFSEGGSAILVPAGQVHQARLKLAADGLPK,0.0409
6,HMNIDGLIGKKALVTADIDNVNSKGQIKINGLEWTARSVDDEPIPMGTEVEITAISGVKAIVRKG,0.168
7,HMSDAGMNQIGDMFRAPDLMAKLAMNPATREYVSQPDFLAMMEEVKRNPSALNNHLRDPRMMNVLSVAM,-0.115
8,HMFEEPYLATYPVLIDPKLAFNVLDTMLEGLEVKMDQDEETGAISVLAPASIHTKITEYLDALSKQ,-0.159
9,HMQKNKSVLFKDIVIAFNQNPKKLFNYKQLAADLDIHSEAERMLISQLLNDLKDQNFLEEVERGKYKLKL,0.0237
10,HMDIANEQEQIFITAMRNDDFNPILELKMKGYQPSKNVLKSLQPDVSSTTFIAAAKIFQMEGVL,-0.144
11,HMNVQGFVFDLAEPLDKVPSIEGFPLKLEDPLTLVAAVNKDRSINALFAELSKLNIKIKSMRNE,0.15
12,HMHTSEDLEKLLTRYFQSHESINRQQFEQLSGFTRTTASRRLKALVEAGKLKNIGLHHFPVYKPTEGNF,-0.354
13,HMLTAPMPGTIQQILVTKGQKVRSGQTLMILEAMKMEHKIKAPNSGEIISINYSLGNRVEMGANLIEI,-1.13
14,HMQQISDPQVLRPMAEEVLHQSQKVVQDYKGGNKNAFHALVGQMMKKTQGKGNPQVIGQVLSELLDE,0.476
15,HMRGRFGNAAPARNLGDHPQGGAINVKAGRYGPYVSWGKVNATLPKDSDPEKVTLEEAVALIAAKQSGQG,-0.103
16,HMYSLSELERIKNFLTGYMSDYSIMMLDANEITNQVDISLKDYSDDNIESIKAAVLSHGGKTDYLNFIDDS,-0.589
17,HMITPAARLRALKIRLSVDEVAQIVQRLVNGETVYQIGKPDTGGHAKATVGKINALRLAGQLHFL,-1.28
18,HMPTPASGSSGYINATNVNFRTGPATSYKSISKLAKNTAVTILGTSGNWYKVTVGSLGKNGYVFATYVTVS,-0.556
19,HMSFTSQSVLIEIVRGTTQLTPLAAAVGANKREVVLAVHRLKQRGLVVSAGLGQYAATEAGRAFLTAGREV,-2.76
20,HMQNSMTTTPDVVGKTGTFAEQMLKAANLNVQFAGDSSGKVVAQDVEAGTSAAYGTIITLTMDS,0.14
21,HMKDIIVLGAIQAGIKKFDKIQKMTQIEPEELNSILEQLENRGFIQVAEKSGLLGKKIEILVTEKGSNEVD,0.442
22,HMVVLPGEVVALKIIQTGSSKDQGVGYLEDGTMVVVDGAKNSIGKTIEIQISRSHQTVAGRMLFGIAMS,-1.24
23,HMSYTYPVARLNHIKGKWYVLVSVPAHLRHLFPNQRDLRRSTGTDDESLAKRKQHALAQEIYDLFD,-0.468
24,HMEETEVPPVTGYEQSKASEVLTGKGLIPDIITVADEETAAGYVIRTDPASGEKVPSGTTVKVYVSSGP,0.159
25,HMPTNSDRLIGSDGVVSSKIDNLQGTGKVYISGLTWSARTIDGSEAEEGDIVTVEKIEGATLYVTKR,0.0599

row,Sequence,soluble fraction (log2)
1,HMDNLSESQIKAYSSILSRTHEISDLAENKDYLAFSLWIANILRDPQSVREETAKRVFSALHTNTDFK,-0.945
2,HMPLQKNRPKIKPQKVVFLFSVEWMWSPAHNRIDSYFINIKPSRYYLWNSFFDRHSFSDYWDFIGYTEN,-0.0868
3,HMEGIWAVFYDGKPINLKSSSLVANYPGPKYKKVSFSNPGHAENLAKKLNAQHNTDKFGVYLLKSGDKFS,-0.00158
4,HMTEKQYIYSIGDRVNIGTDEFEIVNINEKEVSIADVTFPMLVKQISYEEFDRKVKENPFNDHLII,0.0642
5,HMGVGVKSTEVDYQRTSSGSDIPTDDAAWTKTIPAVKVNTFLWTRTKINYTDGTSAIFYSVGY,-0.281
6,HMLLRVGGLVKDGSVRTDNDLGIKFIIEDNLAEVSVLYNGILPDLFREGQGVIAEGKFIDNIFIANEIVA,-0.519
7,HMKHKHHIIPKHKGGTDHPDNLIELTVEQHAKAHWVEFMLDGREEDYWAWKGLEGVASKKDIIYALSKR,0.351
8,HMPDLQDTLYRLVPEDGSAIGNQSLREKFLSTAKDASDADFEAARDGLVEQGKLTKGKGRGGSVRRAEP,0.389
9,HMRQSQEVSGGERYRRLTAYLDTHPFITRKEYSGITGLLKNKALNDLNLLVNKGYLEAMGRGSHKVYVRPM,-0.424
10,HMLALKSGQVVVGTIIRRLDNTTAMLRIGNQLFETSFAKGLPKSNHILLRYDAMQGNRFIFTMVE,-0.191
11,HMAKIEVENLEETILENLKANNGFMPYNDKTSPEEIYEVFHVSKKHFKNSLGGLMKKGLIFQNEKGTKL,-0.0312
12,HMRPTHYSGPSVIAMINNRVWFSDGSRLAPGEHHDDLEVVGLSPPWSAKVRWQGVEFDVGLFE,-1.45
13,HMLPYKGTVAVSLAVLHKAVGVGTADMLKAVGTLRQGTEVTVTGRNGPFAQLKNGLWMKESFLE,-1.04
14,HMNTELFTKNLFNKLEVLLGEKNWKSKTAQLLNISSDAFYKKIRNESQLNLHELLLIKDTFKISIDALLDE,-1.24
15,HMQQELDAFKLLITVSGVGPKAAMAVLSVLPPDRLSIAVSSGDVKSIQSAQGVGKKTAERIVLELKDKM,-0.814
16,HMLTTVAAQRAALHQEEDITKLREIILKLVPFWGLDGGAYADKETSIQLERQYRESFDQAVSAARRSGQA,-0.303
17,HMTHSEYVGRHGIAATSLRPAGAATIDGSRVDVVTSGEYIEKGTPIEVMTVNGSTVRVKAVPQIP,0.0508
18,HMIEIKNLSFSYGKKKQSVFNDFSLTLDKGSVYGLLGKNGTGKSTLLYLMTGLLRPQAGQVLYKGVDVS,0.0827
19,HMHKAVVGPPNARKLAVTYGFKRWPALVFFRDGKYLGAVDGLRLWADLVREADEIMHSEPHYP,-0.166
20,HMSDPSRKADFIAALSSLGGSAGNGKLREQLGWDEPTYDAVKQTLLDEGAITNGRGRGGSVALAG,≥ 0.62
21,HMPELSPEERAIIETLQKNNDLQVNIIAIKTGMDMGSLSAVLFDLEMKGLVKLLAGGMYHLI,-0.148
22,HMLKIAENIYQRRKEKNITQEELADFMMVTKASVSKWETGQSYPDILLLPKLATFFNVTVDELIGYEPQ,-1.2
23,HMTQNSAITNRVLYMQRTLRQYGYAVPESGNFDRTTRAHAAEFLYNATGLPVRENQSVQEFYRAFQRVQG,-0.981
24,HMSELSGSQLKAIREEKHIPLEQVASATRIRLSLLEALEMDEYAELGSRTQARGFLKLYADFLGVPFEA,0.0345
25,HMGDTVSGTMLNLKPGVRVVHQIFGPGRVEETTGASLAEFRVTVRFEQKGLKTLLLQYAALQVINSEN,-0.795
